Residue numbers refer to the chain shown, from its start.
T1: biotinylated mouse EpoR-Fc protein (muEpoR-Fc) (mouse, UniProt P14753 25-249, limits assumed, biotinylated)
T1 construct: also called mouse EpoR (muEpoR); not shown: Fc part
T1 sequence (looked up): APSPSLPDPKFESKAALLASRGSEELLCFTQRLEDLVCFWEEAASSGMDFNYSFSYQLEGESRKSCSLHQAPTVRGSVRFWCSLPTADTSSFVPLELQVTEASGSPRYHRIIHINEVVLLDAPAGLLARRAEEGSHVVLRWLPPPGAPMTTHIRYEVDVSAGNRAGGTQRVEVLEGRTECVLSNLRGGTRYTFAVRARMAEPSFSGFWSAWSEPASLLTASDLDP

B1: clone 2 IgG2 protein (antibody, V domains shown)
VH: EVQLVQSGGGLVQPGGSLRLSCAASGFTFSSYWMSWVRQAPGKGLEWVANIKPDGSEKYYVDSVKGRFTISRDNAKNSVYLQMNSLRAEDTAVYYCARVSRGGSYSDWGQGTLVTVSS
VL: QSVLTQPPSASGSPGQSVTISCTGTSSDVGGYNYVSWYQQHPGKAPKLMIYEVSKRPSGVPDRFSGSKSGNTASLTVSGLQPEDEADYYCSSYAGRNWVFGGGTQLTVL
notes: Human IgG2 (VH in an IgG2 heavy chain expression vector; light chain constant type matches the variable light chain isotype); also called IgG2 2; IgG22
B2: clone 7 IgG2 protein (antibody, V domains shown)
VH: B1 VH with Q110K
VL: QSALTQPASVSGSPGQSIIISCTGTRSDIGGYNYVSWYQHHPGRAPKLIIFDVNNRPSGVSHRFSGSKSGNTASLTISGLQAEDEADYYCNSFTDSRTWLFGGGTKLTVL
notes: Human IgG2 (VH in an IgG2 heavy chain expression vector; light chain constant type matches the variable light chain isotype)
B3: clone 5 IgG2 protein (antibody, V domains shown)
VH: B1 VH with Q6E
VL: QSALTQPASVSGSPGQSITISCTGTSSDVGGYIYVSWYQQHPGKAPKLMIYDVSRRPSGISDRFSGSKSGNTASLTISGLQAEDEADYYCNSYTTLSTWLFGGGTKVTVL
notes: Human IgG2 (VH in an IgG2 heavy chain expression vector; light chain constant type matches the variable light chain isotype); also called IgG2 5; IgG25
B4: clone 10 IgG2 protein (antibody, V domains shown)
VH: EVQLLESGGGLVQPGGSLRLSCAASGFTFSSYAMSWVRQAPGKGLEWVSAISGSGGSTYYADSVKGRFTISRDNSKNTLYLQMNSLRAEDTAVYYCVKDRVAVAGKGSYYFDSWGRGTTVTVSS
VL: QSVLTQPPSVSEAPGQRVTIACSGSSSNIGNNAVSWYQQLPGKAPTLLIYYDNLLPSGVSDRFSGSKSGTSASLAISGLQSEDEADYYCAAWDDSLNDWVFGGGTKVTVL
notes: as for B2
B5: clone 30 IgG2 protein (antibody, V domains shown)
VH: QVQLQESGPGLVKPSQTLSLTCAISGDSVSSNSAAWNWIRQSPSRGLEWLGRTYYRSKWYNDYAVSVKSRMTIKADTSKNQFSLQLNSVTPEDTAVYYCARDEGPLDYWGQGTLVTVSA
VL: QAVLTQPSSVSGAPGQRVTISCTGSSSNLGTGYDVHWYQQLPGTAPKLLIYGNSNRPSGVPDRFSGSKSDTSGLLAITGLQAEDEATYYCQSYDFSLSAMVFGGGTKVTVL
notes: as for B2

Target: T1, biotinylated mouse EpoR-Fc protein …
Assay: ELISA, antibody coated at 1 µg/ml, biotinylated muEpoR-Fc at 5 µg/ml, streptavidin-HRP
Description: Individual scFv-Fc proteins or IgG₂ proteins (100 μl of a 1 μg/ml antibody stock in 50 mM NaHCO₃, pH8.5) were added to each well on a Nunc-Immuno Polysorp ELISA plate (Nalge Nunc International) such that each well comprised only a single clone. The plate was incubated at 4° C. overnight. After blocking the wells with 4% milk/PBS/0.1% tween 20 for 1 hour at room temperature, plates were washed three times with PBS/0.1% tween 20. 100 μl of 5 μg/ml biotinylated muEpoR-Fc protein was added to each well and incubated for 1 hour at 25° C. […] 2,2′-azino-bis(3-ethylbenzthiazoline-6-sulphonic acid) (ABTS) was used as a substrate and the absorption was measured at 405 nm on a plate reader.

binding result	Binder
binds	B1
binds	B2
binds	B3
binds	B4
binds	B5

From patent US20080102065A1 (published 2008)
